{"source": "paper PMC6684798", "about": "“Structural basis for the target specificity of actin histidine methyltransferase SETD3” (Nature Communications, 2019)", "target": "T1, SETD3 (Homo sapiens, UniProt Q86TU7)", "T1 construct": "GST (cleaved yes); made in house; host or cells: Escherichia coli BL21(DE3) CodonPlus", "T1 sequence (Q86TU7 1-594)": "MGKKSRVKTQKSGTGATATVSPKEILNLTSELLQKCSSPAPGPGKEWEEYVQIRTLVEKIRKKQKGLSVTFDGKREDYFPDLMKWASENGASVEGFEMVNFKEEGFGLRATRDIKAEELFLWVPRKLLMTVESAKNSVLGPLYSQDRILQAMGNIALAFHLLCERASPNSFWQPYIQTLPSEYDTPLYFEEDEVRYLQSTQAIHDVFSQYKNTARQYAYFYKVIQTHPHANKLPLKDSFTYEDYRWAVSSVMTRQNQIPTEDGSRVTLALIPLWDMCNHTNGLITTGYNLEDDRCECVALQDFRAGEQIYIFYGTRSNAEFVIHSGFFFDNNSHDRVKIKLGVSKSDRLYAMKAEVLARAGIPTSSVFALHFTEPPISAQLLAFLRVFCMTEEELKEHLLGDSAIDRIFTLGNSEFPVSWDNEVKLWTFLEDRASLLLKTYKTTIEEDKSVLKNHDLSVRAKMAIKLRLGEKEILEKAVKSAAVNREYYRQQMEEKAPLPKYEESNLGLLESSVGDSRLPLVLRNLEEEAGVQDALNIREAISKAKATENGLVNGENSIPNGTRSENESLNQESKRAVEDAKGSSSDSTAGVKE", "assay": "SETD3 activity on K73(66-80) at two temperatures (Supplementary Fig. 3c)", "assay_type": "biochemical", "conditions": "overnight, pH 8.0, [E]=15 µM, [SAM]=100 µM, [S]=700 µM", "method": "Recombinant human SETD3 (pXC2003) was expressed as a GST-fusion[22] in Escherichia coli BL21(DE3) CodonPlus^TM cells (Stratagene). The SETD3 mutants at residue 255 (N255A; pXC2093 and N255V; pXC2094) were generated with Q5 Site-Directed Mutagenesis Kit (New England Biolabs), confirmed by sequencing and the same protocol for expression and purification were followed. Briefly, the purification was conducted in a BIO-RAD NGC^TM system using a three-column chromatography of glutathione-sepharose, HiTrap Q-HP and Superdex 200. The GST tag was removed by PreScisson Protease (purified in-house). The purified SETD3 proteins at a concentration ~25–35 mg/ml were kept at −80 °C in storage buffer for future use [20 mM Tris (pH 8.0), 200 mM NaCl, 5% glycerol, and 0.5 mM tris (2-carboxyethyl) phosphine (TCEP)].\nFor H73 (residues 66–80), a reaction mixture contained 20 mM Tris/HCl (pH 8.0), 50 mM NaCl, 0.1 mg/ml BSA, 1 mM DTT, 0.18 µM SETD3, 40 µM SAM, and 20 µM H73 peptide, the reaction was performed for 20 min (Supplementary Fig. 3b). For K73 (residues 66–80), a reaction mixture contained 20 mM Tris/HCl (pH 8.0), 50 mM NaCl, 0.1 mg/ml BSA, 1 mM DTT, 15 µM SETD3, 100 µM SAM, and 700 µM K73 peptide, the reaction was performed overnight (Supplementary Fig. 3c). All reactions were terminated by the addition of TFA to 0.1% (v/v). […]\nconditions optimized for H73(66-80) (red line): [E]=0.18 µM, [SAM]=40 µM, [S]=20 µM, pH 8.0 at room temperature for indicated reaction time. b, SETD3 activity on H73(66-80) at two difference temperatures under the conditions of [E]=0.18 µM, [SAM]=40 µM, [SH7 3]=20 µM at pH 8. 0 for 20 min reaction. c, SETD3 activity on K73 (66-80 ) at room temperature (~22 °C) and 37 °C under the conditions of increased amounts of [E]=15 µM, [SAM]=100 µM and [S K73]=700 µM at pH 8.0 for overnight reaction. Data represent the mean ± SD of N number of independent determinations (N=2 in panels a and b and N=4 in panel c) performed in duplicate. Source data are provided as a Source Data file. d, A stereo image of omit electron density (Fo -Fc) omitting the side chain of K73 in the active site contoured at 4 s above the mean.\n(1 picture or pasted object on this page, not shown here)"}
{"substance": "K73(66–80): K73-containing (H73K) actin peptide, residues 66–80 (TLKYPIEKGIVTNWD; UniProt P60709 66-80, looked up, variant H73K)", "values": [{"measurement": "CH3 transferred", "setting": "37 °C, replicate 1", "value": 1.773, "unit": "µM"}, {"measurement": "CH3 transferred", "setting": "37 °C, replicate 2", "value": 2.482, "unit": "µM"}, {"measurement": "CH3 transferred", "setting": "37 °C, replicate 3", "value": 3.183, "unit": "µM"}, {"measurement": "CH3 transferred", "setting": "37 °C, replicate 4", "value": 3.325, "unit": "µM"}, {"measurement": "CH3 transferred", "setting": "RT (~22 °C), replicate 1", "value": 0.6813, "unit": "µM"}, {"measurement": "CH3 transferred", "setting": "RT (~22 °C), replicate 2", "value": 0.8003, "unit": "µM"}, {"measurement": "CH3 transferred", "setting": "RT (~22 °C), replicate 3", "value": 0.7535, "unit": "µM"}, {"measurement": "CH3 transferred", "setting": "RT (~22 °C), replicate 4", "value": 0.7963, "unit": "µM"}]}
